The values that follow come from publication PMC7924616.

This test deals with Gorilla bocavirus 1 (GBoV1) VP3, assembled as virus-like particles (VP3-only capsids) (Gorilla bocavirus 1). As to the kind of experiment: cryo-EM structure; purified GBoV1 VLPs (wild-type and VP3-only) in 1x PBS vitrified on holey carbon grids; Titan Krios 300 kV; cisTEM reconstruction with imposed icosahedral symmetry; 2.76 Å.

As usually defined, the stoichiometry N is a count of units in the complex or per binding partner. “Gorilla bocavirus 1 (GBoV1) VP3, assembled as virus-like particles (VP3-only capsids) (natural protein)” registered a stoichiometry N of 60.
